Laboratory results published in publication PMC7814183, “Supramolecular polymerization of sulfated dendritic peptide amphiphiles into multivalent L-selectin binders” (Beilstein Journal of Organic Chemistry, 2021).
pIC50: −log10 of the molar value. Read-outs that look alike come from different tables or passages of the source.

Tests used:
[1] = TEM of negatively stained solutions (self-assembly morphology); format: physicochemical; details: TEM (25 µM, TRIS 20 mM pH 7.4, 100 mM NaCl) and cryo-TEM (50 µM, PBS (-/-) pH 7.4, 100 mM NaCl)
Procedure: The application of transmission electron microscopy (TEM) gave further insight into the morphology of the assemblies induced by the secondary structure formation (Figure 1). All samples for convential TEM imaging were prepared by placing 5 μL of the aqueous solution on a sample grid for 1 min, followed by the removal of the excess liquid using a filter paper and subsequent negative staining using a 2% uranyl acetate solution. By analyzing a 25 μM aqueous solution of I, long rigid anisotopic rod-like structures with lengths of 200–400 nm could be visualized (Figure 1B and 1C), in agreement with our previously reported findings. […] The copresence of shorter, more flexible structures could be seen as well. […] Since the morphology of the aqueous supramolecular polymers observed in dry TEM can be influenced by the sample preparation, cryo-TEM experiments were furthermore performed in order to visualize the assemblies in a native state (Figure 1D and Figure S1 in Supporting Information File 1). The presence of straight nanorods of over 200 nm in length with a high degree of lateral order could be observed, thus corroborating the interpretations from dry TEM experiments.
In order to compare the morphology of the self-assembled sulfated compound II with the TEG-decorated compound I, TEM and cryo-TEM experiments were performed (Figure 2B and 2C). […]

[2] = CD spectroscopy, ionic strength-dependent titration of self-assembly; format: physicochemical; details: 25 µM solution in 20 mM TRIS, pH 7.4; CD band around 218 nm
Excerpt: The self-assembly behavior of the peptide-based materials can be readily investigated using CD spectroscopy. The supramolecular polymerization strongly relies on the formation of secondary structure elements, leading to ordered domains that lead to characteristic CD band spectra. By probing aqueous solutions of I at different concentrations in H2O, a strongly negative CD band at around λ ≈ 220 nm became apparent (Figure 1A). In the past we have assigned this characteristic CD band to a β-sheet-dominated short-range ordering of oligopeptide monomers, which is stable over a wide concentration range [30, 39–40].
Attaching functional groups to the dendritic peptide amphiphiles – and thus the supramolecular polymers – by exchanging one of the shielding dendritic tetra(ethylene glycol) dendrons is important with regard to potential applications. However, depending on the nature of the functional groups, the influence on the self-assembly behavior may not be neglected. In the present work, the installation of a sulfated oligoglycerol dendron introduces eight anionic charges to the periphery of the peptide amphiphile II that possibly counteracts the β-sheet-driven self-assembly due to electrostatic repulsion. CD spectroscopic experiments based on 25 µM or 50 µM solutions of II in 20 mM TRIS as well as PBS buffer support this notion (Figure 2A and Figure S2 in Supporting Information File 1). […]

[3] = molecular target: T1, L-selectin (Homo sapiens, UniProt P14151); assay: competitive SPR L-selectin binding (inhibition) assay; details: competitive SPR (BIAcore X); L-selectin/Fc chimera on protein A-coated 15 nm gold nanoparticles preincubated with analyte; chip with immobilized sulfated tyrosine/sialyl-Lewis X ligand; HEPES 0.020 M pH 7.4, 0.150 M NaCl, 0.001 M CaCl2; sigmoidal fit
T1 construct: purchased R&D Systems, Minneapolis, USA
T1 sequence (P14151 with tags, fused parts or gaps limits assumed, species assumed): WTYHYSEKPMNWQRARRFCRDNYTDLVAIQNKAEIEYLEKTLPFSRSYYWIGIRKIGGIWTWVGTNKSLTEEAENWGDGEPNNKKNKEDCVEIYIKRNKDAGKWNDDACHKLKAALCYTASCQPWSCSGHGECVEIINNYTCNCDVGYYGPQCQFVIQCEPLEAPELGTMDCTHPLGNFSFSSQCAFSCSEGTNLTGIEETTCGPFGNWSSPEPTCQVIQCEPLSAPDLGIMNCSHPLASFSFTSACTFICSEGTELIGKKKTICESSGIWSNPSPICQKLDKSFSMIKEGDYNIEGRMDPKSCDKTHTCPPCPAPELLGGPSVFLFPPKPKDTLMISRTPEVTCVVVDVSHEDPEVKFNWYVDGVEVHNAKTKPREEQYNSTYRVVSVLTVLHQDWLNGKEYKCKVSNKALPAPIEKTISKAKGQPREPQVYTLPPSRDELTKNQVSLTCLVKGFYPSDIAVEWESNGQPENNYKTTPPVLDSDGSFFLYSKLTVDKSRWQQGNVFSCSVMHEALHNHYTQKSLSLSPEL
Procedure: The L-selectin binding behavior of the sulfated supramolecular polymer resulting from II was assessed using a competitive surface plasmon resonance (SPR) binding assay, whereby neutral supramolecular polymers of I were used as control experiment. L-Selectin-coated gold nanoparticles were incubated with analyte solutions of different concentrations and subsequently probed on an SPR-chip modified with immobilized sulfated tyrosine and sialyl-Lewis^X as model ligands. The resulting signal is referenced to a control experiment lacking the preincubation of L-selectin particles. Figure 3 summarizes the resulting dose–response curves.
Figure 3 Concentration-dependent relative L-selectin binding of the supramolecular polymers I and II in HEPES buffer (0.020 M, pH 7.4, with 0.150 M NaCl and 0.001 M CaCl2) measured by SPR. L-Selectin-coated nanoparticles were preincubated with solutions of the supramolecular polymers. […]
(Quantifoil R1/4) at room temperature. […]
autoloader protocol. The micrographs were recorded under low -dose conditions with a primary
magnification of 28000x and an acceleration voltage of 200 kV. The images were recorded by […]
Minneapolis, USA), and the binding signal to the artificial ligand was recorded. […]
taken, which yielded the respective dose–response curves. The IC50 values were determined […]

[4] = molecular target: T1, L-selectin; details: literature comparison values; read-out: IC50, L-selectin binding; cited from earlier work
Excerpt: However, the densely sulfated dendritic polyglycerol of similar molecular weight is able to bind in the ...

## COCCOCCOCCOCCOCC(COCCOCCOCCOCCOC)(COCCOCCOCCOCCOC)NC(=O)CCCCCNC(=O)[C@H](Cc1ccccc1)NC(=O)[C@H](Cc1ccccc1)NC(=O)[C@H](Cc1ccccc1)NC(=O)c1cc(C(=O)N[C@@H](Cc2ccccc2)C(=O)N[C@@H](Cc2ccccc2)C(=O)N[C@@H](Cc2ccccc2)C(=O)NCCCCCC(=O)NCCOCCNC(=O)Cn2cc(COC(COC(COC(COS(=O)(=O)O)COS(=O)(=O)O)COC(COS(=O)(=O)O)COS(=O)(=O)O)COC(COC(COS(=O)(=O)O)COS(=O)(=O)O)COC(COS(=O)(=O)O)COS(=O)(=O)O)nn2)cc(C(=O)N[C@@H](Cc2ccccc2)C(=O)N[C@@H](Cc2ccccc2)C(=O)N[C@@H](Cc2ccccc2)C(=O)NCCCCCC(=O)NC(COCCOCCOCCOCCOC)(COCCOCCOCCOCCOC)COCCOCCOCCOCCOC)c1 [II]
[1]
  length of long rigid rods: several hundred nanometers
[2]
  added NaCl at which the characteristic β-sheet CD signature is restored: > 100 mM

## COCCOCCOCCOCCOCC(COCCOCCOCCOCCOC)(COCCOCCOCCOCCOC)NC(=O)CCCCCNC(=O)[C@H](Cc1ccccc1)NC(=O)[C@H](Cc1ccccc1)NC(=O)[C@H](Cc1ccccc1)NC(=O)c1cc(C(=O)N[C@@H](Cc2ccccc2)C(=O)N[C@@H](Cc2ccccc2)C(=O)N[C@@H](Cc2ccccc2)C(=O)NCCCCCC(=O)NC(COCCOCCOCCOCCOC)(COCCOCCOCCOCCOC)COCCOCCOCCOCCOC)cc(C(=O)N[C@@H](Cc2ccccc2)C(=O)N[C@@H](Cc2ccccc2)C(=O)N[C@@H](Cc2ccccc2)C(=O)NCCCCCC(=O)NC(COCCOCCOCCOCCOC)(COCCOCCOCCOCCOC)COCCOCCOCCOCCOC)c1 [I]
[3]
  pIC50: 5.30

## unfractionated heparin
[4]
  pIC50: 4.92
